# “Also recorded” adds a separate entry of the source.
# B1: Wnt3a: recombinant Wnt3a (protein, UniProt P56704 19-352, looked up)
# Protein Wnt-3a: SYPIWWSLAVGPQYSSLGSQPILCASIPGLVPKQLRFCRNYVEIMPSVAEGIKIGIQECQHQFRGRRWNCTTVHDSLAIFGPVLDKATRESAFVHAIASAGVAFAVTRSCAEGTAAICGCSSRHQGSPGKGWKWGGCSEDIEFGGMVSREFADARENRPDARSAMNRHNNEAGRQAIASHMHLKCKCHGLSGSCEVKTCWWSQPDFRAIGDFLKDKYDSASEMVVEKHRESRGWVETLRPRYTYFKVPTERDLVYYEASPNFCEPNPETGSFGTRDRTCNVSSHGIDGCDLLCCGRGHNARAERRREKCRCVFHWCCYVSCQECTRVYDVHTCK
# Tested on: intestinal stem cells (ISCs)
# Assay: ISC colony formation efficiency / ISC expansion in hydrogels
# Assay type: cell-based, mouse
# Conditions: PEG-RGD, Wnt3a-containing medium
# Method: Freshly isolated crypts or single cells from dissociated colonies were added to the Matrigel or hydrogels precursor solution and cast in 20-μL droplets at the bottom of wells in 24-well plate. […] For single cell culture, thiazovivin (2.5 μM; Stemgent) and Jagged-1 peptide ([…]; Anaspec) was included in the medium during the first two days. Broad spectrum protease inhibitor, GM6001, was added to the medium while embedding the cells in PEG hydrogels. Every two days the growth factors were replenished and the full medium was changed.
# To quantify the colony formation efficiency of single embedded ISCs, phase contrast z-stacks spanning the entire thickness of the cell-laden Matrigel or PEG gels were collected (Zeiss Axio Observer Z1) at 5 different locations within the gels. The Cell Counter plugin in ImageJ (NIH) was used to quantify the fraction of cells which had formed colonies at day 4 after seeding. To assess the viability of intestinal tissue fragments embedded in PEG, phase contrast images of the entire gel were collected. The fraction of viable tissues was estimated based upon the epithelial morphology: tissues that featured an epithelial monolayer surrounding a central lumen after 24 h of embedding were deemed viable.
molecule,measurement,value
B1,ISC culture with Wnt3a instead of CHIR99021 and valproic acid,successfully cultured; also recorded: can successfully replace CHIR99021 and VPA

# — patent US10934529B2, “Three dimensional hydrogels for culturing organoids” (Ecole Polytechnique Fèdèrale de Lausanne, priority 2015, dated 2021)
